Usually Kd stands for the equilibrium constant for the complex coming apart. The low end stands for tighter binding, the high end for weaker binding. The term EC50 (read off the curve) denotes the concentration that produces a half-maximal response. Higher therefore signals a need for much substance. As a reminder, the koff is the first-order rate constant of dissociation. A low value points to a long-lived complex. In general, kon refers to the rate constant with which the complex forms. Read a low kon as slow association.

Assay [1] concerns the target Mouse IgG1 Fc fused SARS-CoV-2 RBD (Sino Biological) (SARS-CoV-2; mouse) (UniProt P0DTC2).
Assay [2] addresses RaTG13 RBD displayed on S. cerevisiae (bat coronavirus RaTG13). Briefly: flow cytometry, S. cerevisiae displaying the RBD, AF633 anti-human IgG [RaTG13]. On the technique in general: In flow cytometry, cells or beads pass a laser one at a time.
For assay [3], the target named is WIV1 RBD displayed on S. cerevisiae (WIV1 (bat sarbecovirus)). Briefly: flow cytometry, S. cerevisiae displaying the RBD, AF633 anti-human IgG [WIV1].
Assay [4] concerns the target LYRa11 RBD displayed on S. cerevisiae (bat SARS-related coronavirus LYRa11). Briefly: flow cytometry, S. cerevisiae displaying the RBD, AF633 anti-human IgG [LYRa11].
Assay [5] has as its target GD-Pangolin RBD displayed on S. cerevisiae (GD-Pangolin coronavirus).
The target in assay [6] is SARS-Cov-1 RBD displayed on S. cerevisiae.
For assay [7], the target named is WIV1-CoV RBD (WIV1-CoV (bat)). As to the kind of experiment: SPR, His-tagged VHH on NTA chip, RBD as analyte. Background: In SPR one partner is held on a chip, and binding of the other changes the refractive index at the surface.
Assay [8] deals with WIV1-CoV RBD (WIV1-CoV (bat)).

Where “and” joins values, the source holds several entries; their conditions need not be identical. Equal values may be shown once.

With “VHH72-W52aH-hIgG1 Fc (P. pastoris supernatant) (Fc fusion)”, in assay [1], the % Signal decrease over 8 min dissociation was 49% and 51%; the dissociation constant Kd is 120 nM and 92.2 nM.
On to S309 antibody, for which the EC50 (read off the curve) in assay [2] turned out to be 0.8 µg/mL; in assay [3] it was 0.7 µg/mL; in assay [4] it was 0.8 µg/mL; in assay [5], 1 µg/mL; in assay [6], 0.5 µg/mL.
For SARS VHH-72, the Kd in assay [7] was 7.47 nM. In addition, in assay [8], the off-rate (koff) worked out at 0.0026 s⁻¹ and the on-rate (kon) was found to be 349000 M⁻¹ s⁻¹.

These data come from patent publication US20230227537A1.
